Data reported in IntAct's records for PubMed 22975076.

Target: tif1b_human TRIM28 (UniProt Q13263)
Sequence (Q13263 whole entry): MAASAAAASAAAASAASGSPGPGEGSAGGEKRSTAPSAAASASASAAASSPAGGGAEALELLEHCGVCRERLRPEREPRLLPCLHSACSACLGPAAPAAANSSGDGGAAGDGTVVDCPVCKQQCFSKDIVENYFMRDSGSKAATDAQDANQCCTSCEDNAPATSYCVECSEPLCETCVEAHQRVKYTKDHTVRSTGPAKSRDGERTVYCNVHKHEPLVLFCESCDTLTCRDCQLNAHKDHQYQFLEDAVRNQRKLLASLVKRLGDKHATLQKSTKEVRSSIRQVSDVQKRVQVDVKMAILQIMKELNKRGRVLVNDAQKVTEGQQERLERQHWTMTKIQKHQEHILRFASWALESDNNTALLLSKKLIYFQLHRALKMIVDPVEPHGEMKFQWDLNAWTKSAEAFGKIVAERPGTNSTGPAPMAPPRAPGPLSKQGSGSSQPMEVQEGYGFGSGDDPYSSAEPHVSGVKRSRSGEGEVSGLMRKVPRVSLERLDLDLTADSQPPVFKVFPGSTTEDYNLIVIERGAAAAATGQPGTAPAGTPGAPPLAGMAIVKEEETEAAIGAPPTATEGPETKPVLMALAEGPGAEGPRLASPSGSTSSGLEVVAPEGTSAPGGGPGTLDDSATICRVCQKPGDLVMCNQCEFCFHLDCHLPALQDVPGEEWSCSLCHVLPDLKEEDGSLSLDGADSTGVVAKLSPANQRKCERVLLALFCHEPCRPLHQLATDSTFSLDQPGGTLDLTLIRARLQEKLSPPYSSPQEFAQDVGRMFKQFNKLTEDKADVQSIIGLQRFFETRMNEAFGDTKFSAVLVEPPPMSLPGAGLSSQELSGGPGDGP

Row | effect of a mutation on the interaction | Substance
1 | decreasing interaction | Zinc finger protein 350 (Homo sapiens), Q9GZX5 V13A
2 | decreasing interaction | Zinc finger protein 350 (Homo sapiens), Q9GZX5 D12A
